From the nanobody polyreactivity screen of Harvey et al. (2022)

Assay: yeast display, Sf9 membrane polyspecificity reagent, FACS + sequencing; frameworks hold sequencing errors
Method in brief: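 Galactose-induced (36–48 hours) yeast carrying a synthetic nanobody display library were exposed to 10% biotinylated, detergent-solubilized Sf9 membrane reagent at 4 °C for 1 hour. FACS followed streptavidin microbead enrichment, using low and high (top ~1%) gates for expression (anti-HA) and reagent binding (streptavidin). Colony PCR, MiSeq 2 × 250 sequencing and CDR-length filtering followed. Labels for polyreactivity reflect the gate of origin.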

Sequence | polyreactivity (PSR sort gate)
QVQLVESGGRLVQSGGSLRLSCAASGSIFVWNAMGWYRQAPGKERELVAAISYDGGSTYYADSVKGRFTISRDNAKNTVYLQMNSLKPEDTAVYYCAFEYVYWLSWYFQYDYWGQGTQVTVSS | low polyreactivity
QVQLVESGGSLVQAGGSLRLSCAASGSTFTKYVMGWYRQAPGKERELVAAISQSGTRTYYADSVKGRFTISRDNAKNTVYLQMNSLKPEDTAVYYCNKPVRNGSYHNRYNYWGQGTQVTVSS | high polyreactivity
QVQLVESGGSLVQAGGSLRLSCAATGRIFGPYAMGWYRQAPGKERELVATITWSGVSTYYADSVKGRFTLSRDNAKNTVYLQMNSLKPEDTAVYFCAADPQVIYRGFYQRDYWGQGTQVTVSS | low polyreactivity
QVQLVESGGVLGQAGVSLRLSCAASGRIFDGNTMGWYIQAPGQEREFVAAISGGGSTYYADSVKGRFTISRDNAKNTVYLQMNSLKPEDTAVYYCAATTGPVPLKGDYWGQGTQVTVSS | low polyreactivity
QVQLVESGGVLVQAAGSLRLSCAASGSIFDVNAMGWNRQAPGKEREFVAAISDSGGSTYYADSVKGRFTISRDNGKNTVYLQMNSLKPEDTAVYYCNADWSWYNYYDFDYWGQGTQVTVSS | low polyreactivity
QVQLVESGGVLVQAGGCLRLSCAASGSILDLNAMGWYRQAPGKERELVAAISLSGGTTYYADSVKGRFTISRDNAKNTVYLQMYSLKPEDTAVYYCNAGYFRPRAGNYVFGVESDYWGQGTQVTVSS | high polyreactivity
QVQLVESGGVLVQAGGIIRLSCAASGFIFVRYAMGWYRQAPGTERELVASIRSVGRTNYADSVKGRFTISRDNAKNTVYLQMNSLKPEDTAVYYCAAGYGSRSRPRGGYWGQGTQVTVSS | high polyreactivity
QVQLVESGGVLVQAGGSIRLTCAASGFTFSHYAMGWYRQAPGKERELVAAIRYSRASTYYADSVKGRFTISRYNAKNTVYLQMISVKPEDTSVYYCARPWWWAHHYDYDYWGQGSQVTVSS | low polyreactivity
QVQLVESGGVLVQAGGSLPLSCAASGSTFRPNAMGWYRQAPGKERELVDGISLNGTTTYYADSVKGRFTISRDNEKNTVYIQMNSLKPVDTAVYYCSADYQFGSAAEPYVFFDPEMDYWGQGTQVTGSS | low polyreactivity
QVQLVESGGVLVQAGGSLRLICAASGRIFGYYAMGWYRQAPGKERELVAAISNGGSTHYADSVKGRFTISRDNAKNTVYLQMNSLKPEDTAVYFCAAKASRVDWGYGYWGQATQVTVSS | high polyreactivity
QVQLVESGGVLVQAGGSLRLSCAASGFIFAKYAMGWYRQAPGKERELVAAINGRGTSTYYADSVKGRFTISRDNAKNTVYLQMNSLKPEDTAVYYCAARLRSGYHGQYDREDYWGQGTQVTVSS | high polyreactivity
QVQLVESGGVLVQAGGSLRLSCAASGFTFWLYAMGWYRQAPGKERELVAAISSGGGSTYYADSVKGRFTNSRDNAKNTVYLQMNSLKPEDTAVYYCNRYYYYGYDWGQGTQVTVSS | high polyreactivity
QVQLVESGGVLVQAGGSLRLSCAASGIIFYRNAMGWYRQAPGKERELVAAITSSGGRTYYADSVKGRFTISRDNAKNTVYLQMNSLKPEDTAVYYCAATRLYWKIFYGDGDYWGQGTQVTVSS | high polyreactivity
QVQLVESGGVLVQAGGSLRLSCAASGITFSRNAMGWYRQAPGKEMELVAAITWNGGRTYYADSVKGRFTISRDNAKNTVYLPMNSLKPEATAVYYCAADYDYPDYYAPSWPGYNYWGQVTQVTVSS | low polyreactivity
QVQLVESGGVLVQAGGSLRLSCAASGLICVPYSMGWYRQAPGKERELVAAISWRGGITYYADSVKGRFTISRDNAKNNVYLQMNSLKPEDTAVYYCAADGPYTGDGALDYWGQGTQVTVSS | high polyreactivity
QVQLVESGGVLVQAGGSLRLSCAASGRTFIFYAMGWYRQAPRKERELVAAITYSGTSTYYADSVKGRFTISRDNAKNTVYLQMNSLKPEDTAVYYCAKDGQRDANYYWGQGTQVTVSS | low polyreactivity

Sequence | polyreactivity (PSR sort gate)
QVQLVESGGVLVQAGGSLRLSCAASGRTFPTYAMGCSRPAPGKERELVAAITSGGSTYYADTVKGRFTISRDKAKNTVYLQMTSLKPEDTAVYYCAAISTWGTKYDYWGQGTQVTVSS | high polyreactivity
QVQLVESGGVLVQAGGSLRLSCAASGRTFRYYVKGWYRRAPGKERELLASITSNGDSTYYADSVKGRFTISRDNAKNTVYLQMNSLKPEDTAVYYCAVRWRDYRGSYRGFEYWGQGTQVTVSS | high polyreactivity
QVQLVESGGVLVQAGGSLRLSCAASGRTLRPYAMGWYRQAPGKERELVAAMTGGVSTDYADSVKGRFTISRDNAKNTVYLQRNSLKPEDTAVYYGAVDDRWFNHISGRYYEYYYWGQGTQVTVSS | low polyreactivity
QVQLVESGGVLVQAGGSLRLSCAASGSIFKRNVMGWYRQAPGKERELVAAITWSGASTYYADSVKGRFTISRDNAKNTVYLQMNSLKPEDTAVYYCAARGPSRRRDGSDYWGQGTQVTVSS | high polyreactivity
QVQLVESGGVLVQAGGSLRLSCAASGSIFRTNVMGWYSQAPGKEREMVASISSDSSTNYADSVKGRFTISRDNEKNTVYLQMNSLKPEDTAVYYCAKDPVVTEHYYWGQGTQVTVSS | low polyreactivity
QVQLVESGGVLVQAGGSLRLSCAASGSIFVYYGMGWYRQAPGKEREFVAAIWTGGSTYYADSVKGRFTISRDNAKNTVYLQMNSLKPEDTAVYYCAADRRGSHYYRYKYGYWGQGTQVTVSS | high polyreactivity
QVQLVESGGVLVQAGGSLRLSCAASGSLFTRYAMGGYRQAPGKVRELVAAISKSGTTTYYADSVKGRFTISRDNAKNTVYLQMNSLIPEDTAVYYCAAVPIAGKMDYWGQGTQVTVSS | high polyreactivity
QVQLVESGGVLVQAGGSLRLTCAASGFTFSRNTMGWYRQAPGKERELVAAIDSTGGSTYYADSVKGRFTISRDNAKNTVYLQMNSLKPEDTAVYYCATVLPDGRVWYEGYYWGQGTQVTVSS | low polyreactivity
QVQLVESGGVLVQEGGSLRLSCAASVSIFSRNAMGSYRQAPGKERELVAAISYSGGSTYYADSVKGRLTISRDNAKNTVYLQMNSLKPEDTEVYYCAAYGHHFQGDYNYWGQGTQVTVSS | low polyreactivity
QVQLVESGGVLVQPRGSLRLICAASGSTLAGNAMGWYRQAPGKEREFVAAISWSGGRTYYADSVKGRFTISRDNAKMTVYLQMNRMKPEDTAVYYCAARRGQTRYQYYYWGQGTQVTVSS | high polyreactivity
QVQLVESGGVVVQAGGSLRLSCAASGFTIDYYAMGWYRQARGQERELVATINGASYTNYADSVKGRFTISRDNAKNTVYLQMNSLKPEDTAVYYCNARYYGPDFVLAYDYWGQGTQVTVSS | low polyreactivity
QVQLVESGLGLLQAGGSLRLSCAASGFIFRLYTMGRYREAPGKVRELVASISSAGSTNYADSVKGRFTISLDNAKNTVYLQMNSLKPDDTAVYDCDKYYGQFYPPTLGYWGQCTQVTVSS | low polyreactivity
QVQLVESGRALVQAGGSLRLSCAASGRICGIYSMGWNRQAPGKEREFVAAISDRSGSRTYYADSVKGRFTISRDNAKNTVYLQMNSLKPEDTAVYYCNARHQYQTLYPGGYYWGQGTQVTVSS | high polyreactivity
QVQLVESGRALVQAGGSLRLSCAASGSTSRIYALGWYRQAPWKERELVAALTRSGGSTYYADSVKGRFTISRDNAKNTVYLQMNSLKPEDTAVYYCAADYRSHSRYRYDKVDYWGQGTQVTVSS | high polyreactivity
QVQLVESGRALVQAGGSLRLSCASSVRIFVRNAMGWYRQAPGKESELVAAISARGGRTNYADSVKGRFTISRDNAKNTVYLQMNSLKPDDTAVYYCAAVGFRAAYLYDYWGQGTQVTVSS | high polyreactivity
